Source: the supplement of paper PMC10065799, “High-throughput profiling of sequence recognition by tyrosine kinases and SH2 domains using bacterial peptide display” (eLife, 2023)

Tests used:
[1] = tested on: AncSZ; test: phosphorylation enrichment, bacterial display (enrichment ratio); higher = better substrate or ligand; peptides without Tyr show the background
[2] = target: EPHB1 (UniProt P54762); test: as above
[3] = target: EPHB2 (UniProt P29323); test: as above
[4] = target: FGFR1 (UniProt P11362); test: as above
Chain of FGFR1 (P11362 whole entry, looked up): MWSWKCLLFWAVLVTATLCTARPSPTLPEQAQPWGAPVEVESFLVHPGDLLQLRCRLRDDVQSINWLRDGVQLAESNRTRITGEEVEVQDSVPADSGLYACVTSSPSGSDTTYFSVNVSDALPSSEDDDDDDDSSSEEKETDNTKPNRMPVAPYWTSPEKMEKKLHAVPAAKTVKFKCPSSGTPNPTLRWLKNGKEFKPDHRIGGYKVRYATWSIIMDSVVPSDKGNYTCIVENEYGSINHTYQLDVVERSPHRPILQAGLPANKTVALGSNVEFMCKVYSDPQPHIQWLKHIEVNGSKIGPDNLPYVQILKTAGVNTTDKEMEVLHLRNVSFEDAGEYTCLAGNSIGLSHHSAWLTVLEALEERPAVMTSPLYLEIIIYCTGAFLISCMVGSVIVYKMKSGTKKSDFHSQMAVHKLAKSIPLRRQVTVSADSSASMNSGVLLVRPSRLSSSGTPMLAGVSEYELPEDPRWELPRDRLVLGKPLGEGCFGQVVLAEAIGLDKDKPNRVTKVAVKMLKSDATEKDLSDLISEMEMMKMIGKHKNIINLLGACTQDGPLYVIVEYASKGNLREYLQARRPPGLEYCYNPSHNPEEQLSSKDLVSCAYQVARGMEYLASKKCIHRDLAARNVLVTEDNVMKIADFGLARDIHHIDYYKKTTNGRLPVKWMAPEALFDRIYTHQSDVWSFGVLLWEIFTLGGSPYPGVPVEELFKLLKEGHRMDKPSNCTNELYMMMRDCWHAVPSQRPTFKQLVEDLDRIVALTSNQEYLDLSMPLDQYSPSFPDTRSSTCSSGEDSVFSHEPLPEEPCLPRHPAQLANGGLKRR

[5] = target: FGFR3 (UniProt P22607); test: as above
Chain of FGFR3 (P22607 whole entry, looked up): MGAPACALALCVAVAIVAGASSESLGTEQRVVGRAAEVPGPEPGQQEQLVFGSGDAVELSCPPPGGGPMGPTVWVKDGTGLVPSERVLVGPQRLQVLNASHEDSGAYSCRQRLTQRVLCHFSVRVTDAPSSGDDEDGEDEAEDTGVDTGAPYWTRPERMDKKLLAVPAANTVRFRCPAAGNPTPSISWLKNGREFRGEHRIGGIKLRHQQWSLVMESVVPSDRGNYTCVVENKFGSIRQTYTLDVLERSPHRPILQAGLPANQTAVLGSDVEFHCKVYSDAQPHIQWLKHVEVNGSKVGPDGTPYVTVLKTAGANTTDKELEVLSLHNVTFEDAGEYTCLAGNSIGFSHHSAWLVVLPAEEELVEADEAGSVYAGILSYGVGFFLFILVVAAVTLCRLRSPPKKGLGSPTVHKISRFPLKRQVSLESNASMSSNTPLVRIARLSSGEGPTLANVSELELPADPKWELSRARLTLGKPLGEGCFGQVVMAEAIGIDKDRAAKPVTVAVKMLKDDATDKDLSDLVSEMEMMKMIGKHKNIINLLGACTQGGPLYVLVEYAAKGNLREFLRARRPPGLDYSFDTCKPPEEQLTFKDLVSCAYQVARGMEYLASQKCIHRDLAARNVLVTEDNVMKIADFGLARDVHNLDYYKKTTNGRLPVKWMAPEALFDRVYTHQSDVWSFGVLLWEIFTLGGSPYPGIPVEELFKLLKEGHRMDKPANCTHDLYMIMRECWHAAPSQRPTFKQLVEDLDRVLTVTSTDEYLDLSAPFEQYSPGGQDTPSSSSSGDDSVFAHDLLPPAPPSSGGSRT

[6] = tested on: Fer (mouse); test: as above
[7] = target: Fes (UniProt P07332); test: as above
Chain of Fes (P07332 whole entry, looked up): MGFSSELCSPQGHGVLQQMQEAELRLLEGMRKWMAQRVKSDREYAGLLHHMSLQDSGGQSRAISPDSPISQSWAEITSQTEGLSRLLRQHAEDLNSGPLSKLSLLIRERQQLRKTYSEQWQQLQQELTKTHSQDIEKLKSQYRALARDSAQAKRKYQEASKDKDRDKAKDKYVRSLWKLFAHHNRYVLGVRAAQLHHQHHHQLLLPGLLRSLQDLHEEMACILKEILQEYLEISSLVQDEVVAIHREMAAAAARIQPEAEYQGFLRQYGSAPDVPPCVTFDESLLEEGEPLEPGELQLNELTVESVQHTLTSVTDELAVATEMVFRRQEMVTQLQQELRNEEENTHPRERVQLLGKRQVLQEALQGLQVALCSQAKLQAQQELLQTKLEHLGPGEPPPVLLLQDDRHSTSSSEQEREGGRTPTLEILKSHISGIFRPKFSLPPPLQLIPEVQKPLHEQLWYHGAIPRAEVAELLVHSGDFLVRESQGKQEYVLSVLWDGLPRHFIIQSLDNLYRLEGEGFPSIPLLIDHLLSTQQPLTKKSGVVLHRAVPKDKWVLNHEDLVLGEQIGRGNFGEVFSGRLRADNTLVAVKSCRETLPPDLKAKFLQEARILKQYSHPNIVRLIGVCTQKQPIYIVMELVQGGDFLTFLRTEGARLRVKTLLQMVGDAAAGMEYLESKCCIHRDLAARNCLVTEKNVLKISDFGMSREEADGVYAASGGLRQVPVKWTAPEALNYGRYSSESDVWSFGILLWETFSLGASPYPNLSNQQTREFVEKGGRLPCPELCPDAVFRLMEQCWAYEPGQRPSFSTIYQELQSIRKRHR

[8] = target: Fyn (UniProt P06241); test: as above
[9] = target: Hck (UniProt P08631); test: as above
Chain of Hck (P08631 whole entry, looked up): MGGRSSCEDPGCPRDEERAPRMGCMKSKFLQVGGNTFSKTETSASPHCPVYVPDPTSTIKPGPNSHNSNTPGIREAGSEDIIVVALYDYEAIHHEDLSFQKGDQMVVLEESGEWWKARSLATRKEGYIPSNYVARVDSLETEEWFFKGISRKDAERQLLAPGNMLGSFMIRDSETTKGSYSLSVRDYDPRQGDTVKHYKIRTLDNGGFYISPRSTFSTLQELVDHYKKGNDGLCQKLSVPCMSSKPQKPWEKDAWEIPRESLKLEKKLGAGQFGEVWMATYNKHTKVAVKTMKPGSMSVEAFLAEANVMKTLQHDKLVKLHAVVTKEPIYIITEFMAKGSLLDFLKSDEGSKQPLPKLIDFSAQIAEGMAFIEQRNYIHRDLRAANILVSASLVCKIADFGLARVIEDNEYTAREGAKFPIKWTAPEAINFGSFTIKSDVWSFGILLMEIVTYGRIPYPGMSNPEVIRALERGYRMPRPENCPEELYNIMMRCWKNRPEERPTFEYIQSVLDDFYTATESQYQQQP

[10] = target: Jak2 (UniProt O60674); test: as above
[11] = target: MERTK (UniProt Q12866); test: as above
Chain of MERTK (Q12866 whole entry, looked up): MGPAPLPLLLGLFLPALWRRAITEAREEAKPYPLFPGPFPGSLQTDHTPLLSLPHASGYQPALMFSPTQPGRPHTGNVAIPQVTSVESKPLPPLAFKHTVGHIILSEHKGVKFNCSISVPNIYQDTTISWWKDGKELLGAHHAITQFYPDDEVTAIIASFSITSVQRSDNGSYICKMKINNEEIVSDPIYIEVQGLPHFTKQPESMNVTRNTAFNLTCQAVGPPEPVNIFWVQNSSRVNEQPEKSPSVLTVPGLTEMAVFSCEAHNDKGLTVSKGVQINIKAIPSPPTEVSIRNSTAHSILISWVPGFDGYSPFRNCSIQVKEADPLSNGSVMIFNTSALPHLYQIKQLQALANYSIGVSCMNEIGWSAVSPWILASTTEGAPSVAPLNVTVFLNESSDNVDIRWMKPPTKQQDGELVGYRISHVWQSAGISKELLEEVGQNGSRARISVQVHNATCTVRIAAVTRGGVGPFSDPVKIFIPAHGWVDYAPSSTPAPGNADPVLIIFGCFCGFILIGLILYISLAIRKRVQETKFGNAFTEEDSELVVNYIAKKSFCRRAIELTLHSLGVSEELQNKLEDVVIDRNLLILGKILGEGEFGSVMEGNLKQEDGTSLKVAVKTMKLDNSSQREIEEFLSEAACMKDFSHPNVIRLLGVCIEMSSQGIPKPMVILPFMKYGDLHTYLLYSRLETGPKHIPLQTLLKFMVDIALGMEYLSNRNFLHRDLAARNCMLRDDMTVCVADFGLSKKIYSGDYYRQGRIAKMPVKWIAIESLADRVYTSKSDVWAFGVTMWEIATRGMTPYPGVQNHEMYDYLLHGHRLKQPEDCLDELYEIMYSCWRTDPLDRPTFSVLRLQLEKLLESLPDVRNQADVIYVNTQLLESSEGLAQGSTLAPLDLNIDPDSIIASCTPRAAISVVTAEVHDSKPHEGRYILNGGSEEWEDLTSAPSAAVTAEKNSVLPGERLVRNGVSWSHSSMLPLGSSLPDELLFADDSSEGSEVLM

[12] = tested on: c-Abl (mouse); test: as above
[13] = tested on: c-Src; test: as above
[14] = target: Grb2 SH2 (UniProt P62993); test: SH2 binding enrichment of the phosphorylated peptide, bacterial display (enrichment ratio); higher = better substrate or ligand; peptides without Tyr show the background
[15] = target: SHP2-C SH2; test: as above
[16] = target: c-Src SH2; test: as above
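Throughout, for SH2 binding enrichment of the phosphorylated peptide, bacterial display: peptide library displayed on the E. coli surface as eCPX fusions, selected cells deep-sequenced, score is each peptide's frequency after selection divided by its frequency in the input.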
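Throughout, for phosphorylation enrichment, bacterial display: 11-residue human phosphosite peptides and single-mutation variants displayed on the E. coli surface, counted by deep sequencing, each peptide's frequency after selection divided by its frequency in the unselected input library; frequency after pTyr selection over input frequency; kinase dosed for 20-30% of maximal phosphorylation in three min.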

Chain of EPHB1 (P54762 whole entry, looked up): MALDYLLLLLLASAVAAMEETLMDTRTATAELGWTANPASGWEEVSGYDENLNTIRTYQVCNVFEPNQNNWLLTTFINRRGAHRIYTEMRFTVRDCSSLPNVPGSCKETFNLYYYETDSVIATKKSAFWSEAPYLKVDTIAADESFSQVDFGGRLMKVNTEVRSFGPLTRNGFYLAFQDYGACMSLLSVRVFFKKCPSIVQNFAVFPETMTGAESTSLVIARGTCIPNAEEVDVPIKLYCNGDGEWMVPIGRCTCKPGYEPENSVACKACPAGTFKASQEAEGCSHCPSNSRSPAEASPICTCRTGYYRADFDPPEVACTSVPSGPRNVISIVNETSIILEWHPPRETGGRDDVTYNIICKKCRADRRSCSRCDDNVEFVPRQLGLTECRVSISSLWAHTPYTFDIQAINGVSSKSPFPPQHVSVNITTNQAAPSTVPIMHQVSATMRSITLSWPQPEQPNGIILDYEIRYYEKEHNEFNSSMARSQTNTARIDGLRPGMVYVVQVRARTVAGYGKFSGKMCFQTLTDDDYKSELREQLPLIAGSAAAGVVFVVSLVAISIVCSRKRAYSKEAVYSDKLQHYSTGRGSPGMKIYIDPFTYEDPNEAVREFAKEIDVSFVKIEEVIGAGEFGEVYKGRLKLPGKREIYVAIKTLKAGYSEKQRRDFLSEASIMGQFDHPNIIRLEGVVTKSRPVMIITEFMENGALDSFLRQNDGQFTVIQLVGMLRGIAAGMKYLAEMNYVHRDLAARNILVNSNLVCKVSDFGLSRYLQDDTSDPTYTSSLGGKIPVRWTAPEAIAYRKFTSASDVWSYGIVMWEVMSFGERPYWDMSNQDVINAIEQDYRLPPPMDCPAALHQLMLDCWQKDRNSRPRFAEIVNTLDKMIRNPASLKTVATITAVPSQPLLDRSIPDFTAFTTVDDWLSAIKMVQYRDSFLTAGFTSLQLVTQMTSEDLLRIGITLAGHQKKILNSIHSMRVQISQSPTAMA

Sequence | SH2 binding enrichment [14] | SH2 binding enrichment [15] | SH2 binding enrichment [16] | phosphorylation enrichment [1] | phosphorylation enrichment [2] | phosphorylation enrichment [3] | phosphorylation enrichment [4] | phosphorylation enrichment [5] | phosphorylation enrichment [6] | phosphorylation enrichment [7] | phosphorylation enrichment [8] | phosphorylation enrichment [9] | phosphorylation enrichment [10] | phosphorylation enrichment [11] | phosphorylation enrichment [12] | phosphorylation enrichment [13]
FSGLAYTMERS [GLUD1_Y512_H507Y_YF] | 0.856 | 0.838 | 0.5 | 0.822 | 0.492 | 0.465 | 0.455 | 0.63 | 0.361 | 0.858 | 0.544 | 0.486 | 0.7 | 0.364 | 0.613 | 0.935
QNRELYSEGLG [CNKSR1_Y665] | 0.74 | 0.616 | 0.536 | 0.516 | 0.536 | 0.454 | 0.578 | 0.397 | 0.309 | 0.789 | 0.434 | 0.895 | 0.497 | 0.443 | 1.33 | 0.446
AGTILYHAHLD [ASS1_Y291] | 0.949 | 0.74 | 0.477 | 0.591 | 0.526 | 0.78 | 0.535 | 0.497 | 0.398 | 0.703 | 0.479 | 0.523 | 0.495 | 0.561 | 0.509 | 0.451
RKLASYQSCLL [DHX37_Y1080_R1081Q] | 0.784 | 0.646 | 0.517 | 1.01 | 0.592 | 0.799 | 1.19 | 1.22 | 0.555 | 1.11 | 0.901 | 0.665 | 2.02 | 0.539 | 0.872 | 0.463
SLDLSYYPTSS [EMD_Y181] | 0.921 | 0.819 | 1.27 | 1.42 | 0.614 | 0.566 | 2.62 | 2.18 | 0.507 | 0.947 | 0.515 | 0.617 | 4.37 | 0.661 | 0.803 | 0.583
ILCTVYAFKMR [GRM3_Y754_T758M] | 0.979 | 1.1 | 0.718 | 1.46 | 0.97 | 0.568 | 0.503 | 0.89 | 0.553 | 1.47 | 0.567 | 0.55 | 1.09 | 0.47 | 0.883 | 0.65
RSLLQYGGSAN [ANK1_Y624] | 0.749 | 0.716 | 0.482 | 0.964 | 0.709 | 0.717 | 0.574 | 0.772 | 0.8 | 0.857 | 0.537 | 0.813 | 0.626 | 0.439 | 1.01 | 0.459
RLRKYYLGKYL [KLB_Y906] | 0.594 | 0.441 | 0.341 | 0.601 | 0.429 | 0.661 | 0.584 | 0.528 | 0.538 | 0.728 | 0.707 | 0.571 | 0.662 | 0.73 | 0.454 | 0.701
YYSSEYHYVGG [CTSC_Y345] | 0.929 | 1.13 | 1.98 | 6.21 | 15.5 | 17.6 | 17.4 | 16.1 | 4.51 | 0.945 | 5 | 6.11 | 7.76 | 12.1 | 12.8 | 4.92
DHFNQYEQQKM [CHD7_Y75_YF] | 0.752 | 0.682 | 0.501 | 0.834 | 0.457 | 0.462 | 0.468 | 0.582 | 0.415 | 0.744 | 0.382 | 0.47 | 0.535 | 0.425 | 0.599 | 0.414
CERLPYDANKW [FLT1_Y815_S818N] | 0.619 | 0.754 | 0.492 | 1.11 | 0.626 | 0.602 | 0.422 | 0.817 | 0.615 | 1.16 | 0.506 | 0.43 | 1.01 | 0.415 | 0.804 | 0.477
VTQEPYELYCE [CBL_Y368_Q367P] | 1.01 | 0.861 | 0.695 | 1.65 | 0.763 | 0.621 | 0.554 | 0.794 | 0.86 | 1.13 | 0.761 | 0.717 | 0.999 | 0.461 | 0.74 | 1.24
IGCHAYGDQYR [IDH1_Y135_R132C] | 0.687 | 0.59 | 0.551 | 1.04 | 0.593 | 0.556 | 0.634 | 0.741 | 0.569 | 1.19 | 0.424 | 0.5 | 0.979 | 0.384 | 0.796 | 0.493
AAVDEYLEHRR [FAM221A_Y17_Y20H] | 0.786 | 0.614 | 0.418 | 0.96 | 0.562 | 0.581 | 0.467 | 0.695 | 0.421 | 1.03 | 0.48 | 0.452 | 0.875 | 0.388 | 0.778 | 0.389
TVLGEYASPKG [CYP24A1_Y407_L409S] | 1.02 | 0.793 | 0.596 | 0.733 | 0.508 | 0.612 | 0.405 | 0.482 | 0.371 | 0.619 | 0.498 | 0.578 | 0.561 | 0.513 | 3.4 | 0.468

Continued, in another order:

SH2 binding enrichment [14] | SH2 binding enrichment [15] | SH2 binding enrichment [16] | Sequence | phosphorylation enrichment [1] | phosphorylation enrichment [2] | phosphorylation enrichment [3] | phosphorylation enrichment [4] | phosphorylation enrichment [5] | phosphorylation enrichment [6] | phosphorylation enrichment [7] | phosphorylation enrichment [8] | phosphorylation enrichment [9] | phosphorylation enrichment [10] | phosphorylation enrichment [11] | phosphorylation enrichment [12] | phosphorylation enrichment [13]
1.32 | 1.1 | 0.822 | PIPIKYKAMKK [MYD88_Y257_L252P] | 0.677 | 0.407 | 0.495 | 0.383 | 0.858 | 0.336 | 0.72 | 0.5 | 0.582 | 0.665 | 0.382 | 0.642 | 0.534
0.956 | 0.605 | 1.02 | HLVSEYQQYQD [TUBB3_Y422_D417H] | 1.78 | 1.07 | 1.11 | 0.868 | 1.05 | 0.72 | 1.61 | 0.652 | 1.21 | 1.29 | 0.482 | 0.98 | 0.939
0.825 | 0.647 | 0.517 | EEGNPSYSSAR [MCCC2_Y520_Y520S] | 0.962 | 0.514 | 0.539 | 0.529 | 0.554 | 0.513 | 1 | 0.497 | 0.585 | 0.776 | 0.501 | 1.25 | 0.542
0.554 | 0.476 | 0.367 | PSVVAYPKRSQ [MARK3_Y432] | 0.834 | 0.517 | 0.413 | 0.39 | 0.949 | 0.531 | 0.793 | 0.565 | 0.573 | 0.531 | 0.409 | 0.522 | 0.309
0.728 | 0.723 | 0.477 | SHPSSYTTHPQ [NIPBL_Y195] | 0.412 | 0.362 | 0.384 | 0.459 | 0.404 | 0.467 | 0.82 | 0.441 | 0.46 | 0.492 | 0.463 | 0.417 | 0.478
1.97 | 1.41 | 1.98 | HAVFVCDICHV [TWNK_Y508_Y508C_YF] | 0.933 | 0.627 | 0.631 | 0.506 | 0.775 | 0.696 | 0.836 | 0.455 | 0.603 | 0.948 | 0.689 | 0.641 | 0.807
1.49 | 1.19 | 0.767 | CEHRGYLFLAI [TEK_Y897_YF] | 0.951 | 0.502 | 0.69 | 0.545 | 0.628 | 0.508 | 0.906 | 0.443 | 0.45 | 1.01 | 0.37 | 0.813 | 0.496
0.731 | 0.814 | 0.771 | IDSTPYRQWYE [RPS8_Y109] | 1.28 | 0.455 | 0.501 | 0.521 | 0.753 | 0.51 | 1.05 | 0.492 | 0.514 | 0.79 | 0.424 | 0.608 | 0.606
0.761 | 0.498 | 0.397 | LTDLRYKVSGL | 0.581 | 0.379 | 0.479 | 0.496 | 0.437 | 0.404 | 0.725 | 0.352 | 0.377 | 0.575 | 0.427 | 0.565 | 0.46
0.85 | 0.792 | 1.02 | ILGRFYETSSI [PAX2_Y73_G76S_YF] | 0.66 | 0.516 | 0.47 | 0.417 | 0.463 | 0.887 | 0.813 | 0.399 | 0.531 | 0.665 | 0.472 | 0.606 | 0.47
0.696 | 0.599 | 0.56 | PVDVAYRRGFF [PLEC_Y2967_YF] | 0.909 | 0.456 | 0.44 | 0.504 | 0.535 | 0.584 | 0.833 | 0.424 | 0.595 | 0.728 | 0.586 | 0.574 | 0.475
1.95 | 1.74 | 1.3 | VIIVLYFSLWK [SLC6A2_Y249_V245I] | 0.774 | 0.363 | 0.371 | 0.462 | 0.548 | 0.471 | 0.631 | 0.375 | 0.369 | 0.702 | 0.354 | 0.693 | 0.386
0.84 | 0.783 | 0.469 | QTEAPYRFIYM [PTPN11_Y511_Q510P] | 1.41 | 0.93 | 1.25 | 7.24 | 5.25 | 11 | 1.6 | 0.697 | 0.984 | 1.22 | 1.4 | 1.15 | 1.93
1.03 | 0.895 | 0.744 | DEEPPHRGPFC [SASH1_Y551_Y551H] | 1.01 | 0.619 | 0.783 | 0.645 | 0.651 | 0.528 | 1.06 | 0.489 | 0.542 | 0.795 | 0.41 | 0.609 | 0.475
1.05 | 1.1 | 1 | AWVARYIFKRL [LPCAT3_Y348] | 1.26 | 0.555 | 0.472 | 0.351 | 0.604 | 0.482 | 1.25 | 0.502 | 0.48 | 1 | 0.424 | 0.748 | 0.346
0.71 | 1.26 | 0.835 | GITVAYTIPKK [UBA5_Y372] | 0.763 | 0.441 | 0.331 | 0.337 | 0.534 | 0.384 | 0.739 | 0.475 | 0.317 | 0.669 | 0.528 | 0.702 | 0.396
1.26 | 0.866 | 2.2 | LLQKTYNYNVL [SLC4A1_Y553_P548L] | 1.26 | 0.745 | 1.7 | 1.23 | 1.06 | 0.496 | 1.52 | 1.07 | 1.01 | 0.834 | 0.694 | 0.716 | 0.851
0.767 | 0.562 | 0.444 | ATPKGYERDAS [OTC_Y223_P225R] | 0.591 | 0.358 | 0.522 | 0.462 | 0.471 | 0.518 | 0.68 | 0.442 | 0.399 | 0.551 | 0.447 | 0.421 | 0.369
